According to patent US20180371086A1 (Gilead, published 2018):
Substitutions are numbered along the chain they refer to.

B1: Variant 2 (DS -> DF) (antibody, human IgG1, lambda, V domains shown)
VH: QMQLQESGPGLVKPSETLSLTCSVSGASISDSYWSWIRRSPGKGLEWIGYVHKSGDTNYNPSLKSRVHLSLDTSKNQVSLSLTGVTAADSGKYYCARTLHGRRIYGIVAFNEWFTYFYMDVWGTGTQVTVSS
VL: SDISVAPGETARISCGEKSLGSRAVQWYQHRAGQAPSLIIYNNQDRPSGIPERFSGSPDFRPGTTATLTITSVEAGDEADYYCHIWDSRVPTKWVFGGGTTLTVLG
B2: Variant 3 (DS->DT) (antibody, human IgG1, lambda, V domains shown)
VH: B1 VH
VL: B1 VL with F60T
B3: Variant 4 (DS->GS) (antibody, human IgG1, lambda, V domains shown)
VH: B1 VH
VL: B1 VL with D59G, F60S
B4: Variant 1 (DS -> DY) (antibody, human IgG1, lambda, V domains shown)
VH: B1 VH
VL: B1 VL with F60Y

Target: gp120 (HT593) expressed on human embryonic kidney (HEK) cells (HIV-1)
Assay: cell-based or functional assay

Binder	% ADCC Activity (ADCC reporter cell based assay; sample stressed at 25° C. for 4 weeks, relative to its untreated control)
B1	96%
B2	104%
B3	95%
B4	100%
